Laboratory results reported in US20250205337A1, “COMPOSITIONS AND METHODS FOR ACTIVATING IMMUNE CELLS” (MDX Management LLC, priority 2022, published 2025).
Entries after “also recorded” stand apart in the source; their conditions may differ.

Assays:
Type in all cases: cell-based, human
[1] = tested on: monocytes from cancer patients (cMo); assay: cMo survival in vitro (STAT3 activators, inhibitors, M-CSF/GM-CSF, KX1); details: for effect of inhibitor on KX1-supported cMo survival: cMo in KX1; for cMo survival (and differentiation) on supplementation: IL-10-depleted KX1 / in place of IL-10
Excerpt: After two days, the T cell culture medium was used to treat cMo.
IL-10/IL-10R signaling activates the downstream STAT3 signaling pathway.
(§1) The mechanisms by which KX1 could promote cMo survival was further studied.

[2] = tested on: Akt, Erk1/2, STAT3, caspase-9 and caspase-3 in cMo; assay: Survival and apoptosis signal transduction in cMo (Western blotting)
Excerpt: (§2) Examination of Akt and Erk1/2, as well as other signaling molecules, detected similar total levels in Mo versus cMo (FIG. 2C), ruling out the absence of protein phosphorylation due to reduction of protein translation.
as §1
The role of IL-10 and other key factors in KX1 was further studied. As shown in FIG. 9A-9D, depletion of IL-10 diminished (>70%) KX1-mediated activation of Akt, Erk 1/2, and STAT3, and this global reduction of survival signal was associated with an increase in cell death signal through activation of caspase-9 and caspase-3.
As shown in FIG. 10A-10C, triple cytokine combination (C-combo V1) was capable of achieving >80% cMo differentiation, although each component alone was not sufficient.

[3] = tested on: monocytes from cancer patients (cMo); assay: Cytokine depletion assays of Karnelian X1 (cMo survival/adhesion and differentiation); details: for role of the cytokine in Karnelian X1 for cMo survival and differentiation: depletion assays
Experimental: The differentiation of cMo from >100 cancer patient samples was tested.
The role of IL-10 and other key factors in KX1 was further studied.

[4] = tested on: monocytes from healthy donors (Mo); assay: Response of monocytes from healthy donors (Mo) to M-CSF and GM-CSF
Excerpt: Similarly, cMo poorly respond to GM-CSF alone or GM-CSF plus IL-4 that drives DC differentiation (data not shown). […] Parallel experiments testing the same M-CSF and GM-CSF reagents successfully differentiated Mo from healthy donors with >90% survival rates.
as §2

[5] = in vitro, at optimal concentration
[6] = promoting cMo survival in vitro, small molecule STAT3 activators
[7] = promoting cMo survival in vitro
[8] = cytokine depleted from Karnelian X1

Molecule: Cc1[nH]nc2ccc(-c3cncc(OC[C@@H](N)Cc4ccccc4)c3)cc12 [A-674563, reference compound]
- effect of inhibitor on KX1-supported cMo survival [1]: abrogated KX1 effectiveness

Molecule: COc1ccc(S(=O)(=O)Nc2cc(-c3c(O)ccc4ccccc34)c(O)c3ccccc23)cc1 [C188-9, reference compound]
- effect of inhibitor on KX1-supported cMo survival [1]: dose-dependently nullified the effect of KX1

Molecule: NC1(Cc2ccc(Cl)cc2)CCN(c2ncnc3[nH]ccc23)CC1 [CCT128930, reference compound]
- effect of inhibitor on KX1-supported cMo survival [1]: abrogated KX1 effectiveness

Molecule: COc1c(O)cc2oc3cc(O)c(CC=C(C)C)c(O)c3c(=O)c2c1CCC(C)(C)O [Garcinone D, reference compound]
- cMo survival (and differentiation) on supplementation [1]: restored cMo survival
- Effectiveness (cMo survival rate) [1, 5]: 90-100%
- Optimal concentration (ng/mL) [1, 6]: 500 to 2000 ng/mL

Molecule: CC(=O)c1cc2c(o1)C(=O)c1ccccc1C2=O [Napabucasin, reference compound]
- effect of inhibitor on KX1-supported cMo survival [1]: dose-dependently nullified the effect of KX1

Molecule: N#CC(=C(/N)Sc1ccccc1N)/C(C#N)=C(\N)Sc1ccccc1N [U0126, reference compound]
- effect of inhibitor on KX1-supported cMo survival [1]: abrogated KX1 effectiveness

Molecule: Colivelin TFA [reference compound]
- cMo survival (and differentiation) on supplementation [1]: restored cMo survival
- Effectiveness (cMo survival rate) [1, 5]: 90-100%
- Optimal concentration (ng/mL) [1, 6]: 10000 to 100000 ng/mL

Molecule: GM-CSF: Granulocyte-macrophage colony-stimulating factor
- activation of Akt, Erk1/2, STAT3 in cMo [2]: failed to activate Akt and Erk1/2
- caspase-9 and caspase-3 cleavage in cMo [2]: increased caspase-9 and caspase-3 cleavage; also recorded: did induce apoptotic signals via cleavage of caspase-9 and caspase-3
- role of the cytokine in Karnelian X1 for cMo survival and differentiation [3]: variable
- survival signal transduction in Mo (activation of Akt and Erk1/2) [4]: induced strong survival signal transduction in Mo cells
- cMo responsiveness to differentiation factor ([1]; over twenty cMo samples, various solid tumors): non- or poor responsiveness

Molecule: IL-6: Interleukin 6, IL-6 family cytokine
- activation of Akt, Erk1/2, STAT3 in cMo [2]: weaker ability to activate Akt in cMo
- role of the cytokine in Karnelian X1 for cMo survival and differentiation [3]: variable
- cMo survival (and differentiation) on supplementation [1]: only moderately supported cMo survival and differentiation
- Effectiveness (cMo survival rate) [1, 5]: 20-30%
- Optimal concentration [1, 7]: 20 to 100 ng/mL

Molecule: IL-17: cytokine in Karnelian X1
- role of the cytokine in Karnelian X1 for cMo survival and differentiation [3]: dispensable

Molecule: JAK inhibitor I [reference compound]
- effect of inhibitor on KX1-supported cMo survival [1]: dose-dependently nullified the effect of KX1

Molecule: TNFα
- reduction of cMo adhesion and survival on depletion of the cytokine from Karnelian X1 [3, 8]: ~20%

B1: IFNγ: Interferon gamma, cytokine in Karnelian X1 (protein, UniProt P01579 24-161, looked up)
Interferon gamma: QDPYVKEAENLKKYFNAGHSDVADNGTLFLGILKNWKEESDRKIMQSQIVSFYFKLFKNFKDDQSIQKSVETIKEDMNVKFFNSNKKKRDDFEKLTNYSVTDLNVQRKAIHELIQVMAELSPAAKTGKRKRSQMLFRG
- reduction of cMo adhesion and survival on depletion of the cytokine from Karnelian X1 [3, 8]: ~20%

B2: IL-19: IL-10 family cytokine, STAT3 activator (protein, UniProt Q9UHD0 25-177, looked up)
Interleukin-19: LRRCLISTDMHHIEESFQEIKRAIQAKDTFPNVTILSTLETLQIIKPLDVCCVTKNLLAFYVDRVFKDHQEPNPKILRKISSIANSFLYMQKTLRQCQEQRQCHCRQEATNATRVIHDNYDQLEVHAAAIKSLGELDVFLAWINKNHEVMFSA
- cMo survival (and differentiation) on supplementation [1]: could replace IL-10 to support cMo survival and differentiation
- Effectiveness (cMo survival rate) [1, 5]: 70-85%
- Optimal concentration (ng/mL) [1, 7]: >10 ng/mL (10-100)

B3: G-CSF: growth factor tested in IL-10-depleted KX1 (protein, UniProt P09919 31-207, looked up)
Granulocyte …: TPLGPASSLPQSFLLKCLEQVRKIQGDGAALQEKLVSECATYKLCHPEELVLLGHSLGIPWAPLSSCPSQALQLAGCLSQLHSGLFLYQGLLQALEGISPELGPTLDTLQLDVADFATTIWQQMEELGMAPALQPTQGAMPAFASAFQRRAGGVLVASHLQSFLEVSYRVLRHLAQP
- Effectiveness (cMo survival rate) ([1]; in IL-10-depleted KX1): 30-40% in
- Optimal concentration (ng/mL) ([1]; in IL-10-depleted KX1): >1 ng/mL (1-200)

B4: IL-22: IL-10 family cytokine, STAT3 activator (protein, UniProt Q9GZX6 34-179, looked up)
Interleukin-22: APISSHCRLDKSNFQQPYITNRTFMLAKEASLADNNTDVRLIGEKLFHGVSMSERCYLMKQVLNFTLEEVLFPQSDRFQPYMQEVVPFLARLSNRLSTCHIEGDDLHIQRNVQKLKDTVKKLGESGEIKAIGELDLLFMSLRNACI
- cMo survival (and differentiation) on supplementation [1]: could replace IL-10 to support cMo survival and differentiation
- Effectiveness (cMo survival rate) [1, 5]: 80-100%
- Optimal concentration (ng/mL) [1, 7]: >10 ng/mL (10-100)

B5: IL-4: Interleukin 4, cytokine in Karnelian X1 (protein, UniProt P05112 25-153, looked up)
Interleukin-4: HKCDITLQEIIKTLNSLTEQKTLCTELTVTDIFAASKNTTEKETFCRAATVLRQFYSHHEKDTRCLGATAQQFHRHKQLIRFLKRLDRNLWGLAGLNSCPVKEANQSTLENFLERLKTIMREKYSKCSS
- reduction of cMo differentiation to APCs [3, 8]: ~50%
- role of the cytokine in Karnelian X1 for cMo survival and differentiation [3]: did not affect cMo survival/adhesion

B6: IL-11: IL-6 family member cytokine (protein, UniProt P20809 22-199, looked up)
Interleukin-11: PGPPPGPPRVSPDPRAELDSTVLLTRSLLADTRQLAAQLRDKFPADGDHNLDSLPTLAMSAGALGALQLPGVLTRLRADLLSYLRHVQWLRRAGGSSLKTLEPELGTLQARLDRLLRRLQLLMSRLALPQPPPDPPAPPLAPPSSAWGGIRAAHAILGGLHLTLDWAVRGLLLLKTRL
- cMo survival (and differentiation) on supplementation [1]: only moderately supported cMo survival and differentiation

B7: IL-24: IL-10 family cytokine, STAT3 activator (protein, UniProt Q13007 52-206, looked up)
Interleukin-24: QEFHFGPCQVKGVVPQKLWEAFWAVKDTMQAQDNITSARLLQQEVLQNVSDAESCYLVHTLLEFYLKTVFKNYHNRTVEVRTLKSFSTLANNFVLIVSQLQPSQENEMFSIRDSAHRRFLLFRRAFKQLDVEAALTKALGEVDILLTWMQKFYKL
- cMo survival (and differentiation) on supplementation [1]: could replace IL-10 to support cMo survival and differentiation
- Effectiveness (cMo survival rate) [1, 5]: 70-85%
- Optimal concentration (ng/mL) [1, 7]: >20 ng/mL (20-100)

B8: IL-10: Interleukin 10, cytokine; recombinant form added back; IL-10 family STAT3 activator (protein, UniProt P22301 19-178, looked up)
Interleukin-10: SPGQGTQSENSCTHFPGNLPNMLRDLRDAFSRVKTFFQMKDQLDNLLLKESLLEDFKGYLGCQALSEMIQFYLEEVMPQAENQDPDIKAHVNSLGENLKTLRLRLRRCHRFLPCENKSKAVEQVKNAFNKLQEKGIYKAMSEFDIFINYIEAYMTMKIRN
- diminution of KX1-mediated activation of Akt, Erk 1/2 and STAT3 ([2]; cytokine depleted from KX1): > 70%
- remnant cells that survived IL-10 depletion ([3]; IL-10 depleted from Karnelian X1): 5-20%
- reduction of cMo adhesion and survival on depletion of the cytokine from Karnelian X1 [3, 8]: 60-80%
- role of the cytokine in Karnelian X1 for cMo survival and differentiation [3]: only weakly influence cMo differentiation to APCs
- cMo survival (and differentiation) on supplementation [1]: dose-dependently restored its survival capacity
- Effectiveness (cMo survival rate) [1, 5]: 90-100%
- Optimal concentration (ng/mL) [1, 7]: >10 ng/mL (10-100)

B9: IL-23: IL-12 family cytokine, STAT3 activator (protein, UniProt Q9NPF7 20-189; P29460 23-328, looked up)
Interleukin-23 subunit alpha: RAVPGGSSPAWTQCQQLSQKLCTLAWSAHPLVGHMDLREEGDEETTNDVPHIQCGDGCDPQGLRDNSQFCLQRIHQGLIFYEKLLGSDIFTGEPSLLPDSPVGQLHASLLGLSQLLQPEGHHWETQQIPSLSPSQPWQRLLLRFKILRSLQAFVAVAARVFAHGAATLSP
Interleukin-12 subunit beta: IWELKKDVYVVELDWYPDAPGEMVVLTCDTPEEDGITWTLDQSSEVLGSGKTLTIQVKEFGDAGQYTCHKGGEVLSHSLLLLHKKEDGIWSTDILKDQKEPKNKTFLRCEAKNYSGRFTCWWLTTISTDLTFSVKSSRGSSDPQGVTCGAATLSAERVRGDNKEYEYSVECQEDSACPAAEESLPIEVMVDAVHKLKYENYTSSFFIRDIIKPDPPKNLQLKPLKNSRQVEVSWEYPDTWSTPHSYFSLTFCVQVQGKSKREKKDRVFTDKTSATVICRKNASISVRAQDRYYSSSWSEWASVPCS
- cMo survival (and differentiation) on supplementation [1]: could replace IL-10 to support cMo survival and differentiation
- Effectiveness (cMo survival rate) [1, 5]: 50-70%
- Optimal concentration (ng/mL) [1, 7]: >10 ng/mL (10-100)
